Results published in patent US20110091994A1, “Methods for Screening Compounds for Treating and/or Preventing an Hepatitis C Virus Infection” (priority 2008, published 2011).
Like-named read-outs stand apart in the source and are kept apart here.

Columns and labels:
[1] = molecular target: T1, HCV ORFs (Gal4-DB fusions) (Hepatitis C virus genotype 1b, UniProt Q9WMX2); format: binding, HCV genotype 1b, isolate con1; details: human protein as prey
T1 construct: expressed in transfected cells; host or cells: Saccharomyces cerevisiae MAV203 (IMAP1) / AH109 (IMAP2)

[2] = test system: HCV ORFs (Gal4-DB fusions); format: binding, HCV genotype 1b, isolate con1; details: human protein listed by gene symbol; the value names the HCV protein it interacts with
HCV proteins = molecular target: T2, HCV proteins (Hepatitis C virus genotype 1b, UniProt Q9WMX2); assay: Validation by Y2H pairwise matrices; format: binding;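 also: yeast two-hybrid pairwise tests of interactions first found in Y2H screens of HCV bait proteins against human cDNA libraries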
T2 construct: expressed in transfected cells
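For IMAP Y2H IMAP1 (number of IST) in this document: yeast two-hybrid screens using HCV genotype 1b proteins fused to Gal4-DB as baits against prey cDNA libraries from human spleen and foetal brain, IMAP1 via transformation and IMAP2 via mating.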
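For IMAP Y2H IMAP2 (number of IST) in this document: yeast two-hybrid screens using HCV genotype 1b proteins fused to Gal4-DB as baits against prey cDNA libraries from human spleen and foetal brain, IMAP1 via transformation and IMAP2 via mating.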
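For Interaction with viral protein in this document: yeast two-hybrid screens using HCV genotype 1b proteins fused to Gal4-DB as baits against prey cDNA libraries from human spleen and foetal brain, IMAP1 via transformation and IMAP2 via mating.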

Molecule | IMAP Y2H IMAP2 (number of IST) ([1]; HCV protein NS5A as bait) | Interaction with viral protein [2] | also measured
SORBS3 (protein, UniProt O60504 1-671, looked up) Vinexin: MQGPPRSLRAGLSLDDFIPGHLQSHIGSSSRGTRVPVIRNGGSNTLNFQFHDPAPRTVCNGGYTPRRDASQHPDPAWYQTWPGPGSKPSASTKIPASQHTQNWSATWTKDSKRRDKRWVKYEGIGPVDESGMPIAPRSSVDRPRDWYRRMFQQIHRKMPDLQLDWTFEEPPRDPRHLGAQQRPAHRPGPATSSSGRSWDHSEELPRSTFNYRPGAFSTVLQPSNQVLRRREKVDNVWTEESWNQFLQELETGQRPKKPLVDDPGEKPSQPIEVLLERELAELSAELDKDLRAIETRLPSPKSSPAPRRAPEQRPPAGPASAWSSSYPHAPYLGSARSLSPHKMADGGSPFLGRRDFVYPSSTRDPSASNGGGSPARREEKKRKAARLKFDFQAQSPKELTLQKGDIVYIHKEVDKNWLEGEHHGRLGIFPANYVEVLPADEIPKPIKPPTYQVLEYGEAVAQYTFKGDLEVELSFRKGEHICLIRKVNENWYEGRITGTGRQGIFPASYVQVSREPRLRLCDDGPQLPTSPRLTAAARSARHPSSPSALRSPADPIDLGGQTSPRRTGFSFPTQEPRPQTQNLGTPGPALSHSRGPSHPLDLGTSSPNTSQIHWTPYRAMYQYRPQNEDELELREGDRVDVMQQCDDGWFVGVSRRTQKFGTFPGNYVAPV | 1 | NS5A | 
C16orf7 (protein, UniProt Q9Y2B5 1-631, looked up) VPS9 domain-containing …: MAAAAGDGTVKPLQSAMKLANGAIELDTGNRPREAYTEYLRSIHYISQVLLEEVETTKEAGETVPPDTSKMLKLAQQCLERAQSTAAKLGKTRLKPTMPAAAPIPQPAGRHRRVYSDEGGKLSPFLPPEIFQKLQGAESQSCKKELTPLEEASLQNQKLKAAYEARMARLDPSQAMQKTSLTLSLQRQMMENLVIAKAREETLQRKMEERRLRLQEAANRRFCSQVALTPEEREQRALYAAILEYEQDHDWPKHWKAKLKRNPGDLSLVTSLVSHLLSLPDHPIAQLLRRLQCSVYSALYPAVSRAAAPAPGCCPPTPNPGSRRLRPSQSLHCMLSPPEPSAAPRPQDSPPTPPLQPGPVGSPSPLGDTASGLPDKDSSFEDLEQFLGTSERQGRGRGVQPEPQLQQLKTAVEEIHNAVDRLLSLTLLAFEGLNTAASKDRCLACIEEPFFSPLWPLLLALYRSVHRAREAALSRSMELYRNAPPTAIGIPTKLLPQNPEAKGATGYPYCAAAQELGLLVLESCPQKKLECIVRTLRIICVCAEDYCPTPEATPQAGPPPIAAAAIGADDLLPILSFVVLRSGLPQLVSECAALEEFIHEGYLIGEEGYCLTSLQSALSYVELLPRGGLAK |  | NS3 | IMAP Y2H IMAP2 (number of IST) ([1]; HCV protein NS3 as bait): 1
SMEK2 (protein, UniProt Q5MIZ7 1-849, looked up) Serine/threonine-protein …: MSDTRRRVKVYTLNEDRQWDDRGTGHVSSTYVEELKGMSLLVRAESDGSLLLESKINPNTAYQKQQDTLIVWSEAENYDLALSFQEKAGCDEIWEKICQVQGKDPSVEVTQDLIDESEEERFEEMPETSHLIDLPTCELNKLEEIADLVTSVLSSPIRREKLALALENEGYIKKLLQLFQACENLENTEGLHHLYEIIRGILFLNKATLFEVMFSDECIMDVVGCLEYDPALAQPKRHREFLTKTAKFKEVIPITDSELRQKIHQTYRVQYIQDIILPTPSVFEENFLSTLTSFIFFNKVEIVSMLQEDEKFLSEVFAQLTDEATDDDKRRELVNFFKEFCAFSQTLQPQNRDAFFKTLAKLGILPALEIVMGMDDLQVRSAATDIFSYLVEFSPSMVREFVMQEAQQSDDDILLINVVIEQMICDTDPELGGAVQLMGLLRTLIDPENMLATTNKTEKSEFLNFFYNHCMHVLTAPLLTNTSEDKCEKDFFLKHYRYSWSFICTPSHSHSHSTPSSSISQDNIVGSNKNNTICPDNYQTAQLLALILELLTFCVEHHTYHIKNYIMNKDLLRRVLVLMNSKHTFLALCALRFMRRIIGLKDEFYNRYITKGNLFEPVINALLDNGTRYNLLNSAVIELFEFIRVEDIKSLTAHIVENFYKALESIEYVQTFKGLKTKYEQEKDRQNQKLNSVPSILRSNRFRRDAKALEEDEEMWFNEDEEEEGKAVVAPVEKPKPEDDFPDNYEKFMETKKAKESEDKENLPKRTSPGGFKFTFSHSASAANGTNSKSVVAQIPPATSNGSSSKTTNLPTSVTATKGSLVGLVDYPDDEEEDEEEESSPRKRPRLGS |  |  | IMAP Y2H IMAP1 (number of IST) ([1]; HCV protein E2 as bait): 1; Y2H matrices (HCV proteins; validation of interaction with HCV protein E2): +
SEPT10 (protein, UniProt Q9P0V9 1-454, looked up) Septin-10: MASSEVARHLLFQSHMATKTTCMSSQGSDDEQIKRENIRSLTMSGHVGFESLPDQLVNRSIQQGFCFNILCVGETGIGKSTLIDTLFNTNFEDYESSHFCPNVKLKAQTYELQESNVQLKLTIVNTVGFGDQINKEESYQPIVDYIDAQFEAYLQEELKIKRSLFTYHDSRIHVCLYFISPTGHSLKTLDLLTMKNLDSKVNIIPVIAKADTVSKTELQKFKIKLMSELVSNGVQIYQFPTDDDTIAKVNAAMNGQLPFAVVGSMDEVKVGNKMVKARQYPWGVVQVENENHCDFVKLREMLICTNMEDLREQTHTRHYELYRRCKLEEMGFTDVGPENKPVSVQETYEAKRHEFHGERQRKEEEMKQMFVQRVKEKEAILKEAERELQAKFEHLKRLHQEERMKLEEKRRLLEEEIIAFSKKKATSEIFHSQSFLATGSNLRKDKDRKNSNFL |  |  | IMAP Y2H IMAP1 (number of IST) ([1]; HCV protein NS3 as bait): 1; Y2H matrices (HCV proteins; validation of interaction with HCV protein NS3): +
RRBP1 (protein, UniProt Q9P2E9 1-1410, looked up) Ribosome-binding protein 1: MDIYDTQTLGVVVFGGFMVVSAIGIFLVSTFSMKETSYEEALANQRKEMAKTHHQKVEKKKKEKTVEKKGKTKKKEEKPNGKIPDHDPAPNVTVLLREPVRAPAVAVAPTPVQPPIIVAPVATVPAMPQEKLASSPKDKKKKEKKVAKVEPAVSSVVNSIQVLTSKAAILETAPKEVPMVVVPPVGAKGNTPATGTTQGKKAEGTQNQSKKAEGAPNQGRKAEGTPNQGKKTEGTPNQGKKAEGTPNQGKKAEGTPNQGKKAEGAQNQGKKVDTTPNQGKKVEGAPTQGRKAEGAQNQAKKVEGAQNQGKKAEGAQNQGKKGEGAQNQGKKAEGAQNQGKKAEGAQNQGKKAEGAQNQGKKAEGAQNQGKKAEGAQNQGKKAEGAQNQGKKVEGAQNQGKKAEGAQNQGKKAEGAQNQGKKAEGAQNQGKKAEGAQNQGKKAEGAQNQGKKAEGAQNQGKKAEGAQNQGKKVEGAQNQGKKAEGAQNQGKKAEGAQNQGKKAEGAQNQGQKGEGAQNQGKKTEGAQGKKAERSPNQGKKGEGAPIQGKKADSVANQGTKVEGITNQGKKAEGSPSEGKKAEGSPNQGKKADAAANQGKKTESASVQGRNTDVAQSPEAPKQEAPAKKKSGSKKKGEPGPPDADGPLYLPYKTLVSTVGSMVFNEGEAQRLIEILSEKAGIIQDTWHKATQKGDPVAILKRQLEEKEKLLATEQEDAAVAKSKLRELNKEMAAEKAKAAAGEAKVKKQLVAREQEITAVQARMQASYREHVKEVQQLQGKIRTLQEQLENGPNTQLARLQQENSILRDALNQATSQVESKQNAELAKLRQELSKVSKELVEKSEAVRQDEQQRKALEAKAAAFEKQVLQLQASHRESEEALQKRLDEVSRELCHTQSSHASLRADAEKAQEQQQQMAELHSKLQSSEAEVRSKCEELSGLHGQLQEARAENSQLTERIRSIEALLEAGQARDAQDVQASQAEADQQQTRLKELESQVSGLEKEAIELREAVEQQKVKNNDLREKNWKAMEALATAEQACKEKLLSLTQAKEESEKQLCLIEAQTMEALLALLPELSVLAQQNYTEWLQDLKEKGPTLLKHPPAPAEPSSDLASKLREAEETQSTLQAECDQYRSILAETEGMLRDLQKSVEEEEQVWRAKVGAAEEELQKSRVTVKHLEEIVEKLKGELESSDQVREHTSHLEAELEKHMAAASAECQNYAKEVAGLRQLLLESQSQLDAAKSEAQKQSDELALVRQQLSEMKSHVEDGDIAGAPASSPEAPPAEQDPVQLKTQLEWTEAILEDEQTQRQKLTAEFEEAQTSACRLQEELEKLRTAGPLESSETEEASQLKERLEKEKKLTSDLGRAATRLQELLKTTQEQLAREKDTVKKLQEQLEKAEDGSSSKEGTSV | 2 | NS5A | 
TP53BP2 (protein, UniProt Q13625 1-1128, looked up) Apoptosis-stimulating of p53 …: MMPMFLTVYLSNNEQHFTEVPVTPETICRDVVDLCKEPGESDCHLAEVWCGSERPVADNERMFDVLQRFGSQRNEVRFFLRHERPPGRDIVSGPRSQDPSLKRNGVKVPGEYRRKENGVNSPRMDLTLAELQEMASRQQQQIEAQQQLLATKEQRLKFLKQQDQRQQQQVAEQEKLKRLKEIAENQEAKLKKVRALKGHVEQKRLSNGKLVEEIEQMNNLFQQKQRELVLAVSKVEELTRQLEMLKNGRIDSHHDNQSAVAELDRLYKELQLRNKLNQEQNAKLQQQRECLNKRNSEVAVMDKRVNELRDRLWKKKAALQQKENLPVSSDGNLPQQAASAPSRVAAVGPYIQSSTMPRMPSRPELLVKPALPDGSLVIQASEGPMKIQTLPNMRSGAASQTKGSKIHPVGPDWSPSNADLFPSQGSASVPQSTGNALDQVDDGEVPLREKEKKVRPFSMFDAVDQSNAPPSFGTLRKNQSSEDILRDAQVANKNVAKVPPPVPTKPKQINLPYFGQTNQPPSDIKPDGSSQQLSTVVPSMGTKPKPAGQQPRVLLSPSIPSVGQDQTLSPGSKQESPPAAAVRPFTPQPSKDTLLPPFRKPQTVAASSIYSMYTQQQAPGKNFQQAVQSALTKTHTRGPHFSSVYGKPVIAAAQNQQQHPENIYSNSQGKPGSPEPETEPVSSVQENHENERIPRPLSPTKLLPFLSNPYRNQSDADLEALRKKLSNAPRPLKKRSSITEPEGPNGPNIQKLLYQRTTIAAMETISVPSYPSKSASVTASSESPVEIQNPYLHVEPEKEVVSLVPESLSPEDVGNASTENSDMPAPSPGLDYEPEGVPDNSPNLQNNPEEPNPEAPHVLDVYLEEYPPYPPPPYPSGEPEGPGEDSVSMRPPEITGQVSLPPGKRTNLRKTGSERIAHGMRVKFNPLALLLDSSLEGEFDLVQRIIYEVDDPSLPNDEGITALHNAVCAGHTEIVKFLVQFGVNVNAADSDGWTPLHCAASCNNVQVCKFLVESGAAVFAMTYSDMQTAADKCEEMEEGYTQCSQFLYGVQEKMGIMNKGVIYALWDYEPQNDDELPMKEGDCMTIIHREDEDEIEWWWARLNDKEGYVPRNLLGLYPRIKPRQRSLA | 2 | NS5A | 
BCL2A1 (protein, UniProt Q16548 1-175, looked up) Bcl-2-related protein A1: MTDCEFGYIYRLAQDYLQCVLQIPQPGSGPSKTSRVLQNVAFSVQKEVEKNLKSCLDNVNVVSVDTARTLFNQVMEKEFEDGIINWGRIVTIFAFEGILIKKLLRQQIAPDVDTYKEISYFVAEFIMNNTGEWIRQNGGWENGFVKKFEPKSGWMTFLEVTGKICEMLSLLKQYC |  | NS3 | IMAP Y2H IMAP2 (number of IST) ([1]; HCV protein NS3 as bait): 1
